# Laboratory results reported in the supplement of paper PMC9112550, “Optimization of the antimicrobial peptide Bac7 by deep mutational scanning” (BMC Biology, 2022).
# Tested on: Escherichia coli TOP10
# Test: shrunken log2 fold change of peptide-encoding DNA abundance (4.5 h post-induction vs induction); higher = less antimicrobial activity (less host growth inhibition)
# Settings: time post-induction: 4.5 h; library: site-saturation at positions 5, 18, 19, 20
# 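Further: peptides expressed intracellularly from a pBAD plasmid library in pooled LB shake-flask culture, induced with 0.3% L-arabinose, DNA abundance read by NGS, three biological replicates, DESeq2 with apeglm shrinkage.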
row,Sequence,shrunken log2 fold change
1,RRIRERPPRLPRPRPRPIGCPRP,-0.00631
2,RRIRSRPPRLPRPRPRPMAKPRP,0.206
3,RRIRHRPPRLPRPRPRPRFAPRP,0.0665
4,RRIRRRPPRLPRPRPRPRDTPRP,0.6
5,RRIRMRPPRLPRPRPRPKSPPRP,0.325
6,RRIRKRPPRLPRPRPRPAPMPRP,0.769
7,RRIRIRPPRLPRPRPRPTDRPRP,-0.192
8,RRIRNRPPRLPRPRPRPHVSPRP,-0.00166
9,RRIRRRPPRLPRPRPRPVEEPRP,0.105
10,RRIRWRPPRLPRPRPRPQWRPRP,-0.0345
11,RRIRIRPPRLPRPRPRPYHYPRP,-0.415
12,RRIRMRPPRLPRPRPRPAICPRP,0.171
13,RRIRGRPPRLPRPRPRPIITPRP,-0.0865
14,RRIRNRPPRLPRPRPRPCNLPRP,-0.134
15,RRIRCRPPRLPRPRPRPNYLPRP,-0.797
16,RRIRVRPPRLPRPRPRPDLRPRP,-0.0613
17,RRIRARPPRLPRPRPRPCGNPRP,0.0115
18,RRIRRRPPRLPRPRPRPHDKPRP,0.302
19,RRIRVRPPRLPRPRPRPMKWPRP,-0.068
20,RRIRNRPPRLPRPRPRPLRWPRP,1.25
21,RRIRFRPPRLPRPRPRPRKGPRP,0.447
22,RRIRSRPPRLPRPRPRPIDVPRP,-0.0081

row,Sequence,shrunken log2 fold change
1,RRIRERPPRLPRPRPRPWCSPRP,-0.177
2,RRIRSRPPRLPRPRPRPSSDPRP,-0.107
3,RRIRFRPPRLPRPRPRPCTEPRP,-0.431
4,RRIRMRPPRLPRPRPRPICRPRP,0.297
5,RRIRPRPPRLPRPRPRPKLWPRP,0.683
6,RRIRPRPPRLPRPRPRPWEYPRP,-0.05
7,RRIRTRPPRLPRPRPRPWQNPRP,-0.0181
8,RRIRFRPPRLPRPRPRPCEGPRP,-0.086
9,RRIRLRPPRLPRPRPRPRSHPRP,0.195
10,RRIRGRPPRLPRPRPRPLSMPRP,1.34
11,RRIRARPPRLPRPRPRPHLGPRP,0.0806
12,RRIRDRPPRLPRPRPRPQTPPRP,0.4
13,RRIRFRPPRLPRPRPRPIHLPRP,-0.154
14,RRIRPRPPRLPRPRPRPGCAPRP,1.55
15,RRIRHRPPRLPRPRPRPAAYPRP,-0.206
16,RRIRHRPPRLPRPRPRPGKQPRP,-0.173
17,RRIRDRPPRLPRPRPRPLVPPRP,0.249
18,RRIRCRPPRLPRPRPRPGMTPRP,0.0507
19,RRIRFRPPRLPRPRPRPDKFPRP,-0.0567
20,RRIRKRPPRLPRPRPRPMGPPRP,0.339
21,RRIRVRPPRLPRPRPRPCSMPRP,-0.177
22,RRIRERPPRLPRPRPRPDYTPRP,-1.01

row,Sequence,shrunken log2 fold change
1,RRIRFRPPRLPRPRPRPDYCPRP,-0.127
2,RRIRQRPPRLPRPRPRPCFLPRP,0.115
3,RRIRDRPPRLPRPRPRPEPQPRP,0.0781
4,RRIRTRPPRLPRPRPRPLWMPRP,-0.119
5,RRIRDRPPRLPRPRPRPNSWPRP,-0.12
6,RRIRTRPPRLPRPRPRPGIYPRP,-0.279
7,RRIRPRPPRLPRPRPRPHMLPRP,-0.226
8,RRIRCRPPRLPRPRPRPCCLPRP,-0.35
9,RRIRQRPPRLPRPRPRPGGRPRP,0.456
10,RRIRRRPPRLPRPRPRPNMSPRP,2.14
11,RRIRMRPPRLPRPRPRPYPTPRP,-0.114
12,RRIRARPPRLPRPRPRPCMLPRP,-0.0396
13,RRIRERPPRLPRPRPRPTIFPRP,-0.0972
14,RRIRGRPPRLPRPRPRPHYGPRP,-0.627
15,RRIRVRPPRLPRPRPRPGRWPRP,0.649
16,RRIRNRPPRLPRPRPRPKTHPRP,-0.298
17,RRIRDRPPRLPRPRPRPSLMPRP,0.175
18,RRIRIRPPRLPRPRPRPCDKPRP,-0.0161
19,RRIRRRPPRLPRPRPRPQPLPRP,0.509
20,RRIRRRPPRLPRPRPRPWKTPRP,0.00424
21,RRIRERPPRLPRPRPRPVTMPRP,-0.433
22,RRIRWRPPRLPRPRPRPQEQPRP,0.0647

row,Sequence,shrunken log2 fold change
1,RRIRVRPPRLPRPRPRPKGNPRP,0.143
2,RRIRYRPPRLPRPRPRPHQNPRP,-0.527
3,RRIRFRPPRLPRPRPRPRWVPRP,0.191
4,RRIRARPPRLPRPRPRPIIWPRP,-0.419
5,RRIRQRPPRLPRPRPRPEIMPRP,0.103
6,RRIRMRPPRLPRPRPRPTIMPRP,0.176
7,RRIRERPPRLPRPRPRPSPCPRP,-0.229
8,RRIRTRPPRLPRPRPRPYADPRP,-0.22
9,RRIRHRPPRLPRPRPRPGQKPRP,0.00748
10,RRIRHRPPRLPRPRPRPHDSPRP,-0.03
11,RRIRHRPPRLPRPRPRPTAHPRP,-0.173
12,RRIRRRPPRLPRPRPRPPGTPRP,0.705
13,RRIRVRPPRLPRPRPRPWWAPRP,-0.0894
14,RRIRWRPPRLPRPRPRPEIQPRP,0.685
15,RRIRFRPPRLPRPRPRPKNGPRP,-0.0366
16,RRIRFRPPRLPRPRPRPRPIPRP,0.341
17,RRIRRRPPRLPRPRPRPVYHPRP,-0.0449
18,RRIRSRPPRLPRPRPRPSGTPRP,-0.494
19,RRIRFRPPRLPRPRPRPSHYPRP,-0.762
20,RRIRDRPPRLPRPRPRPQMRPRP,-0.0122
21,RRIRKRPPRLPRPRPRPGVTPRP,0.409
22,RRIRQRPPRLPRPRPRPMCPPRP,0.00821

row,Sequence,shrunken log2 fold change
1,RRIRIRPPRLPRPRPRPVQNPRP,-0.425
2,RRIRTRPPRLPRPRPRPEYKPRP,0.134
3,RRIRMRPPRLPRPRPRPGIRPRP,0.253
4,RRIRTRPPRLPRPRPRPWGTPRP,-0.11
5,RRIRWRPPRLPRPRPRPMLPPRP,-0.0127
6,RRIRGRPPRLPRPRPRPNHQPRP,0.0643
7,RRIRPRPPRLPRPRPRPGSYPRP,0.0254
8,RRIRQRPPRLPRPRPRPLTHPRP,0.045
9,RRIRPRPPRLPRPRPRPASSPRP,0.0138
10,RRIRYRPPRLPRPRPRPQKHPRP,-0.777
11,RRIRQRPPRLPRPRPRPKDHPRP,-0.185
12,RRIRNRPPRLPRPRPRPKVKPRP,-0.196
13,RRIRSRPPRLPRPRPRPEKGPRP,0.0255
14,RRIRCRPPRLPRPRPRPIMYPRP,-0.916
15,RRIRWRPPRLPRPRPRPMCTPRP,0.356
16,RRIRKRPPRLPRPRPRPVTKPRP,0.063
17,RRIRRRPPRLPRPRPRPRLWPRP,0.273
18,RRIRNRPPRLPRPRPRPGYTPRP,-0.501
19,RRIRERPPRLPRPRPRPVKFPRP,-0.02
20,RRIRCRPPRLPRPRPRPAADPRP,0.341
21,RRIRSRPPRLPRPRPRPAIWPRP,0.463
